According to patent US20140274782A1, “AFFINITY REAGENTS AND METHODS FOR DETECTION, PURIFICATION, AND PROTEOMIC ANALYSIS OF METHYLATED PROTEINS” (The Board of Trustees of the Leland Stanford Junior …, priority 2013, published 2014):

T1: G9a and GLP (Homo sapiens, UniProt Q96KQ7+Q9H9B1)
T1 sequence (Q96KQ7 2-1210 limits assumed): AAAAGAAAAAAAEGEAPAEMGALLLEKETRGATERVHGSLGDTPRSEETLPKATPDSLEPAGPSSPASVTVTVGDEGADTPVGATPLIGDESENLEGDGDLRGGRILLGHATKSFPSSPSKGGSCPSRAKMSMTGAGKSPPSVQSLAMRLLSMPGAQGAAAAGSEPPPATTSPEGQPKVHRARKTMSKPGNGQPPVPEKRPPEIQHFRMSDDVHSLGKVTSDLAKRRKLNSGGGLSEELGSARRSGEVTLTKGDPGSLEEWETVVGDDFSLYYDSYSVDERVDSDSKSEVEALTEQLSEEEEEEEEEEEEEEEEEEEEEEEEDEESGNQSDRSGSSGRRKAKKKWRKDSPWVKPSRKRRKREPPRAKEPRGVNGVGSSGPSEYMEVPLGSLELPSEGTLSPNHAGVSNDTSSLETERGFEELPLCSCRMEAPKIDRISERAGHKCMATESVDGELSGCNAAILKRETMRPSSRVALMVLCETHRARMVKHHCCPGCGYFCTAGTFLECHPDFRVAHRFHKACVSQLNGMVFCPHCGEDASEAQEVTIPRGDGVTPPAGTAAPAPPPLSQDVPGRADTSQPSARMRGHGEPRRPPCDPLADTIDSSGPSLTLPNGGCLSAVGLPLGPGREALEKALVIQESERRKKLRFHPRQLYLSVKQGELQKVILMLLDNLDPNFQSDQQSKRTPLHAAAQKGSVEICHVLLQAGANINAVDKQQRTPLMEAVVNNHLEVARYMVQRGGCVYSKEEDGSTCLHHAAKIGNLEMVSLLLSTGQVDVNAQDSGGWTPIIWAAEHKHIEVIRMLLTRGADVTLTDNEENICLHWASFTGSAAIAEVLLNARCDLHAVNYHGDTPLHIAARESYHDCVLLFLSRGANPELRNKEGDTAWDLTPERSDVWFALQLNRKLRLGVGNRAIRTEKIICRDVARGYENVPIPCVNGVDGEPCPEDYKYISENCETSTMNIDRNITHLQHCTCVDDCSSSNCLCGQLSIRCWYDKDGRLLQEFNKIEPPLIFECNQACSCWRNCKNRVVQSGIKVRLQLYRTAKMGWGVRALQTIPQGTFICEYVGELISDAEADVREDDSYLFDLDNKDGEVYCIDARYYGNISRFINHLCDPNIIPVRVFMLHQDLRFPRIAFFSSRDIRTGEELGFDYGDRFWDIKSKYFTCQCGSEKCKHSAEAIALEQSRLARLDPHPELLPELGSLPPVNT
T1 sequence (Q9H9B1 2-1298 limits assumed): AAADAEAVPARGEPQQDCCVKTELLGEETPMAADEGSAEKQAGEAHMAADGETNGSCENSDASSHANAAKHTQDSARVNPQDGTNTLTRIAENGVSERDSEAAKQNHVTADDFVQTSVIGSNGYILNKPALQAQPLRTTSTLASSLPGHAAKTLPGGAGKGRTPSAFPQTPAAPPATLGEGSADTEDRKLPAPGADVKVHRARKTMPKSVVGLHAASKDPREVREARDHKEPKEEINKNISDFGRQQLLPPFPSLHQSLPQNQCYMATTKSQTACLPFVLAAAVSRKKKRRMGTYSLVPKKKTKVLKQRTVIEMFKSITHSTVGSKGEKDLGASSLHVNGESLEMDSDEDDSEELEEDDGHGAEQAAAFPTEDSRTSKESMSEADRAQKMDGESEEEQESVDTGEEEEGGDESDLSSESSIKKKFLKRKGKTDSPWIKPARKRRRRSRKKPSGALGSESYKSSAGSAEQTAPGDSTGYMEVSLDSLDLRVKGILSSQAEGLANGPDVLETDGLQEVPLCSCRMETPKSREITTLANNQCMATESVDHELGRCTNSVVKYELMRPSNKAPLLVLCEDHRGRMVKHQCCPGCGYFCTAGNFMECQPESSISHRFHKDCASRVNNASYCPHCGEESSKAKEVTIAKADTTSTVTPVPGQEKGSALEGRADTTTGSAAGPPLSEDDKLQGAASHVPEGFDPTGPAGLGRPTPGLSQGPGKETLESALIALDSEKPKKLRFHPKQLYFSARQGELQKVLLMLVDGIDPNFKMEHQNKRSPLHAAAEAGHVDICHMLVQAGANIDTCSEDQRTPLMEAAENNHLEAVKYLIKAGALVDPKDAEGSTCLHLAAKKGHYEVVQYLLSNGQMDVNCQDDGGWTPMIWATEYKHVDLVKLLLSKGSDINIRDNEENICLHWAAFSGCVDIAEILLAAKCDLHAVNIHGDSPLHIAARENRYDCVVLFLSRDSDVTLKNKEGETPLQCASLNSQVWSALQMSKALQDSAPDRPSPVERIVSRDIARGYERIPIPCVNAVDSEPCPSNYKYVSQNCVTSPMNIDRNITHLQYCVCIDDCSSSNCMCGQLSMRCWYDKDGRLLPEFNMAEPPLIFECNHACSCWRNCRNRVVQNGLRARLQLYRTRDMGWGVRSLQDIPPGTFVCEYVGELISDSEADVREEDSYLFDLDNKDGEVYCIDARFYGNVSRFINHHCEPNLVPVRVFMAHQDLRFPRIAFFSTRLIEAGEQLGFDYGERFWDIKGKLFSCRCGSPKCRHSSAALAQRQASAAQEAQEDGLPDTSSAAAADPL

B1: U2AF1 (protein, UniProt Q01081 2-240, looked up)
Splicing factor U2AF 35 kDa …: AEYLASIFGTEKDKVNCSFYFKIGACRHGDRCSRLHNKPTFSQTIALLNIYRNPQNSSQSADGLRCAVSDVEMQEHYDEFFEEVFTEMEEKYGEVEEMNVCDNLGDHLVGNVYVKFRREEDAEKAVIDLNNRWFNGQPIHAELSPVTDFREACCRQYEMGECTRGGFCNFMHLKPISRELRRELYGRRRKKHRSRSRSRERRSRSRDRGRGGGGGGGGGGGGRERDRRRSRDRERSGRF
B2: RBM26 (protein, UniProt Q5T8P6 1-1007, looked up)
RNA-binding protein 26: MVSKMIIENFEALKSWLSKTLEPICDADPSALAKYVLALVKKDKSEKELKALCIDQLDVFLQKETQIFVEKLFDAVNTKSYLPPPEQPSSGSLKVEFFPHQEKDIKKEEITKEEEREKKFSRRLNHSPPQSSSRYRENRSRDERKKDDRSRKRDYDRNPPRRDSYRDRYNRRRGRSRSYSRSRSRSWSKERLRERDRDRSRTRSRSRTRSRERDLVKPKYDLDRTDPLENNYTPVSSVPSISSGHYPVPTLSSTITVIAPTHHGNNTTESWSEFHEDQVDHNSYVRPPMPKKRCRDYDEKGFCMRGDMCPFDHGSDPVVVEDVNLPGMLPFPAQPPVVEGPPPPGLPPPPPILTPPPVNLRPPVPPPGPLPPSLPPVTGPPPPLPPLQPSGMDAPPNSATSSVPTVVTTGIHHQPPPAPPSLFTADTYDTDGYNPEAPSITNTSRPMYRHRVHAQRPNLIGLTSGDMDLPPREKPPNKSSMRIVVDSESRKRTIGSGEPGVPTKKTWFDKPNFNRTNSPGFQKKVQFGNENTKLELRKVPPELNNISKLNEHFSRFGTLVNLQVAYNGDPEGALIQFATYEEAKKAISSTEAVLNNRFIKVYWHREGSTQQLQTTSPKVMQPLVQQPILPVVKQSVKERLGPVPSSTIEPAEAQSASSDLPQNVTKLSVKDRLGFVSKPSVSATEKVLSTSTGLTKTVYNPAALKAAQKTLLVSTSAVDNNEAQKKKQEALKLQQDVRKRKQEILEKHIETQKMLISKLEKNKTMKSEDKAEIMKTLEVLTKNITKLKDEVKAASPGRCLPKSIKTKTQMQKELLDTELDLYKKMQAGEEVTELRRKYTELQLEAAKRGILSSGRGRGIHSRGRGAVHGRGRGRGRGRGVPGHAVVDHRPRALEISAFTESDREDLLPHFAQYGEIEDCQIDDSSLHAVITFKTRAEAEAAAVHGARFKGQDLKLAWNKPVTNISAVETEEVEPDEEEFQEESLVDDSLLQDDDEEEEDNESRSWRR
B3: DCAF7 (protein, UniProt P61962 1-342, looked up)
DDB1- and CUL4-associated …: MSLHGKRKEIYKYEAPWTVYAMNWSVRPDKRFRLALGSFVEEYNNKVQLVGLDEESSEFICRNTFDHPYPTTKLMWIPDTKGVYPDLLATSGDYLRVWRVGETETRLECLLNNNKNSDFCAPLTSFDWNEVDPYLLGTSSIDTTCTIWGLETGQVLGRVNLVSGHVKTQLIAHDKEVYDIAFSRAGGGRDMFASVGADGSVRMFDLRHLEHSTIIYEDPQHHPLLRLCWNKQDPNYLATMAMDGMEVVILDVRVPCTPVARLNNHRACVNGIAWAPHSSCHICTAADDHQALIWDIQQMPRAIEDPILAYTAEGEINNVQWASTQPDWIAICYNNCLEILRV
B4: DENR (protein, UniProt O43583 2-198, looked up)
Density-regulated protein: AADISESSGADCKGDPRNSAKLDADYPLRVLYCGVCSLPTEYCEYMPDVAKCRQWLEKNFPNEFAKLTVENSPKQEAGISEGQGTAGEEEEKKKQKRGGRGQIKQKKKTVPQKVTIAKIPRAKKKYVTRVCGLATFEIDLKEAQRFFAQKFSCGASVTGEDEIIIQGDFTDDIIDVIQEKWPEVDDDSIEDLGEVKK

Each molecule was assayed on 3×MBT domain of L3MBTL1 (assay: Triple SILAC pull-down, 3xMBT/3xMBTD355N ratio (cytoplasmic, nuclear and chromatin fractions of 293T cells)). Conditions: SILAC ratio, pull-down 3xMBT vs 3xMBTD355N; experiment with UNC0638 in heavy SILAC media.
Type: binding, human
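For 3xMBT/D355N UNC Heavy in this document: proteins quantified with MaxQuant, requiring at least two unique peptides and quantification in both label directions, normalized to the mean of proteins from a digested loading control.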
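For 3xMBT/D355N UNC Light in this document: proteins quantified with MaxQuant, requiring at least two unique peptides and quantification in both label directions, normalized to the mean of proteins from a digested loading control.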
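For Candidate G9a/GLP target in this document: mass spectrometry (Q-Exactive) SILAC quantitation, DMSO/UNC0638 ratio computed after subtracting 3×MBTD355N mutant pull-down background, only proteins with at least twofold 3×MBT over mutant signal considered.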
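For Relative to UNC0638 Average in this document: mass spectrometry (Q-Exactive) SILAC quantitation, DMSO/UNC0638 ratio computed after subtracting 3×MBTD355N mutant pull-down background, only proteins with at least twofold 3×MBT over mutant signal considered.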
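For Relative to UNC0638 UNC Heavy in this document: mass spectrometry (Q-Exactive) SILAC quantitation, DMSO/UNC0638 ratio computed after subtracting 3×MBTD355N mutant pull-down background, only proteins with at least twofold 3×MBT over mutant signal considered.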
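For Relative to UNC0638 UNC Light in this document: mass spectrometry (Q-Exactive) SILAC quantitation, DMSO/UNC0638 ratio computed after subtracting 3×MBTD355N mutant pull-down background, only proteins with at least twofold 3×MBT over mutant signal considered.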
Protocol: For stable isotope labeling by amino acids in cell culture (SILAC) experiments HEK 293T cells were grown for at least six doublings in DMEM for SILAC supplemented with 10% dialyzed fetal bovine serum (FBS), 230 mg/L L-proline and either 100 mg/L each of L-lysine and L-arginine (“light” medium), D4-L-lysine and ^13C6-L-arginine (“medium” media), or ^13C6^15N2-L-lysine and ^13C6^15N4-L-arginine (Thermo Scientific). Heavy methyl labeling used DMEM without L-Methionine or L-Cysteine supplemented with D3^13C-L-Methionine (Sigma), L-Cysteine (Sigma) and 10% dialyzed FBS.
For UNC0638 treatments cells were treated for 24 hours with UNC0638 at 2.5 μM or DMSO vehicle control. One experiment treated cells in light media with UNC0638, the other treated cells in heavy media. Both experiments included cells in medium media treated with DMSO for negative control pull-down with 3×MBTD355N.
UNC0638 treatment experiments used a Q-Exactive mass spectrometer (ThermoFisher Scientific). A 25 cm HPLC column with 3 μm Reliasil (Orochem) was used to separate peptides over a 4 hour gradient from 0 to 75% acetonitrile. Ions were generated using a custom nanospray source flowing at 250 nL/minute. Mass spectrometry settings were 70,000 MS1 resolution, data dependent selection of up to 20 precursor ions per cycle, dynamic exclusion of 30 seconds and isolation window of 2 m/z. The nuclear fraction from the experiment using UNC0638 on cells in heavy media was additionally analyzed by 2D HPLC-MS/MS as described earlier.
Peptides were identified and quantified using MaxQuant version 1.2.2.5 (Cox and Mann, supra) with the following changes to default settings: mono- and di-methylation of lysine, and oxidation of methionine, and N-terminal acetylation as variable modifications, disabled “I=L”, up to three modifications per peptide, one missed cleavage, maximum charge of 5. Protein and peptide FDR were set to 1%, and proteins were filtered post-hoc for at least two unique peptides. Proteins were excluded from an experiment if they were not quantified in both labeling directions. Because FDR is unreliable for small numbers of peptides the modification site FDR was set to 10% and all methylated peptides were manually verified. […] Quantitative protein data was normalized to the mean value among proteins identified by analyzing 50 ng of digested loading control.
For UNC0638 experiments the treated vs. untreated ratio was determined by subtracting the value from 3×MBTD355N prior to dividing values from the light and heavy channels. Only proteins showing a two-fold signal to background ratio (3×MBT/3×MBTD355N) were evaluated as potential G9a/GLP substrates.

Molecule | 3xMBT/D355N UNC Heavy [log base 2]
B1 | 3.19
B2 | 2.44
B3 | 1.67
B4 | 2.50

Same assay, conditions: SILAC ratio, pull-down 3xMBT vs 3xMBTD355N; experiment with UNC0638 in light SILAC media

Molecule | 3xMBT/D355N UNC Light [log base 2]
B1 | 2.52
B2 | 2.00
B3 | 1.31
B4 | 3.36

The molecules below were run against T1, G9a and GLP (assay: Triple SILAC pull-down after UNC0638 treatment of 293T cells, DMSO/UNC0638 ratio of protein captured by 3×MBT). Conditions: SILAC ratio DMSO/UNC0638 of protein pulled down with 3xMBT; UNC0638 in heavy SILAC media.
Type: cell-based
Parameters: endogenous in cells; host or cells: HEK 293T

Molecule | Relative to UNC0638 UNC Heavy [log base 2]
B1 | 0.20
B2 | 0.21
B3 | 0.69
B4 | 0.09

Same assay, conditions: SILAC ratio DMSO/UNC0638 of protein pulled down with 3xMBT; UNC0638 in light SILAC media

Molecule | Relative to UNC0638 UNC Light [log base 2]
B1 | 0.08
B2 | 0.08
B3 | 0.48
B4 | 0.20

Same assay, conditions: average of UNC Light and UNC Heavy experiments

Molecule | Relative to UNC0638 Average [log base 2]
B1 | 0.14
B2 | 0.14
B3 | 0.59
B4 | 0.14

Same assay, conditions: reduced association with 3xMBT after UNC0638 treatment

Molecule | Candidate G9a/GLP target
B3 | ✓
